# From patent US12594347B2, “Nanoparticulate drug delivery systems” (Duke University, priority 2018, dated 2026)
# Where two headings read alike, the source gives them in different places.
# Legend:
# [1] = system: C26 murine colon adenocarcinoma cells
# Method: C26 murine colon adenocarcinoma cells were seeded (5000 cells/well) in a 96-well plate. After 24 h, cells were treated in triplicate with 3-fold serial dilutions of drugs beginning with 100 uM. After 72 h incubation, 20 μL of CellTiter 96 AQueous™ (Promega; Madison, WI) 3-(4,5-dimethlthiazol-2-yl)-5-(3-carboxymethoxphenyl)-2-(4-sulfophenyl)-2H-tetrazolium (MTS) reagent was added to each well followed by 3 h incubation at 37° C. The absorbance at 490 nm was determined using a Victor3™ microplate reader (Perkin Elmer; Waltham, MA). For each plate, blank wells (with no cells) were defined as 0% viability and wells treated with PBS were defined as 100% viability. The background absorbance at 490 nm was corrected by subtracting the average absorbance of the blank wells from each well. The percent viability was defined as the absorbance of each well normalized to the absorbance of wells treated with PBS. Inhibitory concentration (IC 50) values were calculated using a four-parameter logistic fit in the Prism program (GraphPad Software, San Diego, CA, USA).
# Canine pharmacokinetics = test: Canine pharmacokinetics
# Source text: Canine pharmacokinetics and toxicities. […] All procedures and protocols involving care, handling, and dosing for this study were reviewed and approved by the Institutional Animal Care and Use Committee (IACUC) at North Carolina State University College of Veterinary Medicine, which is an AAALAC-accredited facility. The animals' health status were monitored daily by the animal technicians and veterinary staff, paying particular attention for signs of gastrointestinal toxicities including vomiting, diarrhea, lethargy, and inappetence. If noted, supportive care was provided. […] 2 mL blood samples were drawn from jugular vein at 40 s, 15 and 30 min, 2, 4, 8, 24, 48, and 72 h after injection, diluted into 400 μL heparinized PBS (1000 UmL^−1). Sample processing and analysis were performed as with murine pharmacokinetics studies.
# [2] = Biodistribution in C26 tumor-bearing mice; format: in vivo, Balb/C mice; details: mouse, in vivo
# Method: Cell culture and tumor inoculation.
# Biodistribution. […] At 2 and 24 h after injection, tissues (tumor, muscle, heart, lung, liver, spleen and kidney) were removed, weighed and suspended in 1.0 mL acidified isopropanol (75 mM HCl, 10% water, 90% isopropanol). Tissues were then homogenized using 2 mm diameter zirconia beads and a MiniBeadbeater-1TM (Biospec; Bartlesville, OK) for 2 min at 5,000 beats per minute and were incubated overnight at 4° C. in the dark. The isopropanol extracts were then vortexed, and centrifuged (14,000 RPM, 10 min, 4° C.) and 125 uL of the supernatant was loaded onto a black 96-well plate (BD Biosciences) in duplicate. […] To correct for background tissue fluorescence, tissues were removed from three untreated control mice and were processed similarly. For each tissue, a background (counts per mg tissue) curve was created using 2-fold dilutions of the processed tissues in acidified isopropanol.
# [3] = system: MDA-MB-231 human breast cancer cells; test: In vitro cytotoxicity, MTS assay, MDA-MB-231 cells; format: cell-based; details: 72 h incubation, read-out: half-maximal inhibitory concentration (IC50)
# Method: In vitro cytotoxicity of the ABDN-CP-PTX versus that of naked CP-PTX and free PTX was determined using the […] MTS assay. […] The MTS assay was repeated twice to ensure validity of results.
# [4] = target: T1, human serum albumin (HSA) (Homo sapiens, UniProt P02768); test: Isothermal titration calorimetry (Nano ITC) for PTX conjugates with human albumin; format: binding
# Method: (§1) For PTX conjugates, ITC was conducted using a Nano ITC system (TA Instruments, Utah, USA). Aliquots of 10 uL of 500 uM albumin in PBS were titrated via a 250 μl syringe into CP-PTX at 50 uM concentration, stirring at 300 rpm at 37° C. For background correction, PBS (in the cell) was titrated with albumin (in the syringe) at the same concentrations and conditions. Background was subtracted from the final curves and the binding and thermodynamic parameters binding constant (KD), number of binding sites (n), and enthalpy (ΔH)—were computed by non-linear fitting to an independent-binding site model using TA Instruments NanoAnalyze software.
# [5] = Thermal turbidimetry (transition temperature); format: physicochemical
# Method: Thermal Turbidimetry. Thermal profiles of CPs and CP conjugates were determined by measuring the transition temperature (Tt) over a range of concentrations (5, 10, 25, 50, and 100 uM) in PBS, FBS, and MS using a Cary UV-visible spectrophotometer equipped with temperature controller (Agilent Technologies, CA, USA). […] The transition temperature was defined as the maximum first derivative of the optical density.
# [6] = Pharmacokinetics of Alexa488-labeled ABD-ELP and ELP monomers in mice; format: in vivo; details: tail vein, Balb/C mice, two-compartment model
# Method: A single cysteine was added to the C-terminus of polypeptides and was reacted with Alexa 488-maleimide (Life Technologies, Carlsbad, CA, USA). 50 uL Alexa 488-maleimide at 27.75 uM in DMSO was added to the polypeptide solution in the reaction (250 uM) and was allowed to stir for 3 hr at room temperature in the dark. Unbound Alexa488 was then removed by Amicon ultra-15 centrifugal filter units (MWCO 10 kDa, Millipore) and in PBS. Alexa488 concentration and conjugation efficiency was then determined.
# 125 uL of the supernatant was loaded onto a black 96-well plate (BD Biosciences) in duplicate. Free Alexa488-maleimide solutions at various known concentrations were prepared in heparinized PBS and were loaded onto the plate as standards. Alexa488 fluorescence was measured on a Wallac Victor3 TM microplate reader (Perkin Elmer; Waltham, MA).
# [7] = target: T2, mouse serum albumin (MSA) (Mus musculus, UniProt P07724); test: Isothermal titration calorimetry (Nano ITC) for PTX conjugates with mouse albumin; format: binding
# T2 sequence (P07724 25-608): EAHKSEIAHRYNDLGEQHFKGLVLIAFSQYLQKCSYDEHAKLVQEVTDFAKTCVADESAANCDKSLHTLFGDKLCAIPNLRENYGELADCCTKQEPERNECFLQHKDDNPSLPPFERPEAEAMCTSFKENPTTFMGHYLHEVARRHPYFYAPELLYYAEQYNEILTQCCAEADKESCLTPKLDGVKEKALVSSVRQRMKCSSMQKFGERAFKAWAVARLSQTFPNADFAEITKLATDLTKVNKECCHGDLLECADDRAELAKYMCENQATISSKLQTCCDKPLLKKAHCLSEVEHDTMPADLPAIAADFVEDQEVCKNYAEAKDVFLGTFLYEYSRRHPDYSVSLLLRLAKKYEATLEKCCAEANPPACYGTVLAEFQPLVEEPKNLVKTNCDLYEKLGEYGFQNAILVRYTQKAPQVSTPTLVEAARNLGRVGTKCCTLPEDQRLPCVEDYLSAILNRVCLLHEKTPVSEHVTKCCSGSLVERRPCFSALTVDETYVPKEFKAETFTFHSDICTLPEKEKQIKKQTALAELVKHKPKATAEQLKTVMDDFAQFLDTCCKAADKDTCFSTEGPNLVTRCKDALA
# Method: as §1
# [8] = target: T1, human serum albumin (HSA); test: Isothermal titration calorimetry (VP-ITC) of polypeptide carriers with human albumin; format: binding; details: PBS pH 7.4, 37° C.
# Method: (§2) Interaction with albumin. Interaction of CP monomers and micelles with human and mouse albumin was analyzed by isothermal titration calorimetry (ITC).
# [9] = target: T2, mouse serum albumin (MSA); test: Isothermal titration calorimetry (VP-ITC) of polypeptide carriers and DOX micelles with mouse albumin; format: binding; details: PBS pH 7.4, 37° C.
# Method: as §2
# [10] = Dynamic and static light scattering; format: physicochemical; details: for % Intensity / Polydispersity / Rh: DLS
# Method: Light Scattering. Dynamic and static light scattering measurements were performed using an ALV/CGS-3 goniometer system (Germany). […] To study the effect of albumin binding on micellar self-assembly, mouse albumin was added to the samples at 1:1 albumin-CP molar ratio in PBS. Measurements were obtained at 25° C. and 37° C. for angles between 30-150° at 5° increments with each angle consisting of 3 runs and 10 s each at each run. Hydrodynamic radius (Rh) was determined by dynamic light scattering. The radius of gyration (Rg) and the average molecular weight of the particle (MW) were calculated from the slope and intercept of a partial Zimm plot, respectively, using ALV/Dynamic and Static FIT and PLOT software and according. The micelle aggregation number Nagg, or the number of polypeptide chains per nanoparticle, was calculated by dividing the micelle molecular weight by the molecular weight of the polypeptide monomer.
# Size and morphology of CP conjugated micelles. The radius and the aggregation number of the self-assembled micelles were determined, in the presence and absence of albumin, by dynamic and static light scattering at 37° C. using an ALV/CGS-3 goniometer system (Germany). Freeze fracture electron microscopy was performed to visualize the micelles and estimate their radius and morphology.
# [11] = dogs, cephalic vein, 27 DOX Equiv/m^−2 BSA or 0.9 mg DOX Equiv/kg BW
molecule,measurement,setting,value
"COc1cccc2c1C(=O)c1c(O)c3c(c(O)c1C2=O)C[C@@](O)(C(=O)CO)C[C@@H]3O[C@H]1C[C@H](N)[C@H](O)[C@H](C)O1 [DOX, doxorubicin, reference compound]",IC50,[1],90 nM
same,Apparent distribution volume VD,"Canine pharmacokinetics; dog, in vivo",3.85 ± 0.26 mL/g
same,Plasma clearance CL,"Canine pharmacokinetics; dog, in vivo",0.7875 ± 0.0951 mL/h/g
same,Distribution half-life β t1/2,Canine pharmacokinetics; [11],3.6 ± 0.5 min
same,Elimination rate constant kg,Canine pharmacokinetics; [11],0.96 ± 0.13 h⁻¹
same,Plasma to tissue rate constant kpt,Canine pharmacokinetics; [11],8.51 ± 1.20 h⁻¹
same,Elimination half-life α t1/2,"Canine pharmacokinetics; dogs, cephalic vein, 27 DOX Equiv/m^−2 BSA or 0.9 mg DOX Equiv/kg BW, plasma DOX",2.9 ± 0.8 h
same,accumulation in the spleen (in words),[2],lower accumulation in the spleen than CP-DOX micelles
same,"distribution to the heart, lung, kidneys, and muscle (in words)",[2],greater extent
"CC(=O)O[C@H]1C(=O)[C@@]2(C)[C@H]([C@H](OC(=O)c3ccccc3)[C@]3(O)C[C@H](OC(=O)[C@H](O)[C@@H](NC(=O)c4ccccc4)c4ccccc4)C(C)=C1C3(C)C)[C@]1(OC(C)=O)CO[C@@H]1C[C@@H]2O [free PTX, paclitaxel, reference compound]",IC50,"[3]; MDA-MB-231, printed MDA-MB-213 human breast cancer cells",9.8 nM
ABDN-ELP: ELP scaffold with albumin binding domain ABDN (SEQ ID NO:6) fused to the N-terminus and C-terminal cysteine sequence (protein) LAEAKVLANRELDKYGVSDYYKNLINNAKTVEGVKALIDEILAALPVPGAGVPGAGVPGAGVPGAGVPGAGVPGAGVPGAGVPGAGVPGAGVPGAGVPGAGVPGAGVPGAGVPGAGVPGAGVPGAGVPGAGVPGAGVPGAGVPGAGVPGAGVPGAGVPGAGVPGAGVPGAGVPGAGVPGAGVPGAGVPGAGVPGAGVPGAGVPGAGVPGAGVPGAGVPGAGVPGAGVPGAGVPGAGVPGAGVPGAGVPGAGVPGAGVPGAGVPGAGVPGAGVPGAGVPGAGVPGAGVPGAGVPGAGVPGAGVPGAGVPGAGVPGAGVPGAGVPGAGVPGAGVPGAGVPGAGVPGAGVPGAGVPGAGVPGAGVPGAGVPGAGVPGAGVPGAGVPGAGVPGAGVPGAGVPGAGVPGAGVPGAGVPGAGVPGAGVPGAGVPGAGVPGAGVPGAGVPGAGVPGAGVPGAGVPGAGVPGAGVPGAGVPGAGVPGAGVPGAGVPGAGVPGAGVPGAGVPGAGVPGAGVPGAGVPGAGVPGAGVPGAGVPGAGVPGAGVPGAGVPGAGVPGAGVPGAGVPGAGVPGAGVPGAGVPGAGVPGAGVPGAGVPGAGVPGAGVPGAGVPGAGVPGAGVPGAGVPGAGVPGAGVPGAGVPGAGVPGAGVPGAGVPGAGVPGAGVPGAGVPGAGVPGAGVPGAGVPGAGVPGAGVPGAGVPGAGVPGAGVPGAGVPGAGVPGAGVPGAGVPGAGVPGAGVPGAGVPGAGVPGAGVPGAGVPGAGVPGAGVPGAGVPGAGCGGCGGCGGCGGCGGCGGCGGCGG,n (number of binding sites),[4]; listed as ABD-CP,0.95
same,transition temperature,[5]; 100 μM concentration in PBS,57 °C
same,Tt,[5]; ABDN-CP fusions for conjugation with Paclitaxel,48 °C
same,Apparent distribution volume VD,[6],0.27 ± 0.01 mL/g
same,Area under the curve AUC,[6],80.2 ± 1.9 µM·h
same,Distribution half-life β t1/2,[6],1.24 ± 0.295 h
same,Elimination half-life α t1/2,[6],16.8 ± 0.5 h
same,Elimination rate constant kg,[6],0.08 ± 0.00 h⁻¹
same,Plasma clearance CL,[6],0.012 ± 0.000 mL/h/g
same,Plasma to tissue rate constant kpt,[6],0.21 ± 0.06 h⁻¹
same,Tissue to plasma rate constant ktp,[6],0.31 ± 0.07 h⁻¹
same,Elimination half-life α t1/2,[6]; listed as ABDN-CP,17 h
same,n (number of binding sites),[7]; listed as ABD-CP,1.05
same,binding stoichiometry N,[8],1.04±0.00
same,binding stoichiometry N,[9],1.12±0.00
ABD-CP-PTX (conjugate) LAEAKVLANRELDKYGVSDYYKNLINNAKTVEGVKALIDEILAALPVPGAGVPGAGVPGAGVPGAGVPGAGVPGAGVPGAGVPGAGVPGAGVPGAGVPGAGVPGAGVPGAGVPGAGVPGAGVPGAGVPGAGVPGAGVPGAGVPGAGVPGAGVPGAGVPGAGVPGAGVPGAGVPGAGVPGAGVPGAGVPGAGVPGAGVPGAGVPGAGVPGAGVPGAGVPGAGVPGAGVPGAGVPGAGVPGAGVPGAGVPGAGVPGAGVPGAGVPGAGVPGAGVPGAGVPGAGVPGAGVPGAGVPGAGVPGAGVPGAGVPGAGVPGAGVPGAGVPGAGVPGAGVPGAGVPGAGVPGAGVPGAGVPGAGVPGAGVPGAGVPGAGVPGAGVPGAGVPGAGVPGAGVPGAGVPGAGVPGAGVPGAGVPGAGVPGAGVPGAGVPGAGVPGAGVPGAGVPGAGVPGAGVPGAGVPGAGVPGAGVPGAGVPGAGVPGAGVPGAGVPGAGVPGAGVPGAGVPGAGVPGAGVPGAGVPGAGVPGAGVPGAGVPGAGVPGAGVPGAGVPGAGVPGAGVPGAGVPGAGVPGAGVPGAGVPGAGVPGAGVPGAGVPGAGVPGAGVPGAGVPGAGVPGAGVPGAGVPGAGVPGAGVPGAGVPGAGVPGAGVPGAGVPGAGVPGAGVPGAGVPGAGVPGAGVPGAGVPGAGVPGAGVPGAGVPGAGVPGAGVPGAGVPGAGVPGAGVPGAGVPGAGVPGAGVPGAGVPGAGVPGAGVPGAGVPGAGCGGCGGCGGCGGCGGCGGCGGCGG,n (number of binding sites),[4],0.92
same,n (number of binding sites),[7],0.95
same,% Intensity,[10]; Concentration 20 μM,95.4%
same,Polydispersity,[10]; Concentration 20 μM,24.6%
same,Rh,[10]; Concentration 20 μM,39.6 ± 2.2 nm
same,% Intensity,[10]; Concentration 40 μM,96.6%
same,Polydispersity,[10]; Concentration 40 μM,26.6%
same,Rh,[10]; Concentration 40 μM,44.1 ± 4.7 nm
same,Nagg,"[10]; SLS, 20 μM concentration",64.5
same,RG,"[10]; SLS, 20 μM concentration",42.83 nm
same,aggregation (in words),[10]; body temperature (37° C.),no aggregates
same,IC50,[3]; printed MDA-MB-213 human breast cancer cells,10.9 nM
